The results in this text go back to the supplement of paper PMC5998384.

The test system of data set [1] is HeLa Kyoto. Nature of the data set: solubility in G1/S (NP-40 vs SDS abundance) (log2 ratio); higher = more soluble. Conditions: cell cycle stage: G1/S.
For data set [2], the system named is HeLa Kyoto. Put plainly: thermal stability score vs G1/S (z-score of summed log2 fold changes over temperatures); higher = more thermally stable than in G1/S.
Data set [3] relates to HeLa Kyoto. Put plainly: solubility change mitosis vs G1/S (difference of NP-40 vs SDS log2 ratios) (log2 ratio difference); higher = more soluble in mitosis.
Data set [4] deals with HeLa Kyoto. Nature of the data set: melting temperature (median over replicates), in situ; higher = more thermally stable.
[5] abbreviates: cell cycle stage: early G1 (4.5 h after nocodazole release).
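Throughout, for melting temperature (median over replicates), in situ: HeLa Kyoto cells synchronized by double thymidine or nocodazole block, proteins quantified by TMT10plex mass spectrometry, three independent biological replicates.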
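Throughout, for solubility change mitosis vs G1/S (difference of NP-40 vs SDS log2 ratios): synchronized HeLa Kyoto cells (double thymidine block for G1/S, nocodazole release for mitosis), protein amounts in NP-40 versus SDS lysates quantified by mass spectrometry, three biological replicates.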
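Throughout, for solubility in G1/S (NP-40 vs SDS abundance): HeLa Kyoto cells arrested at G1/S by double thymidine block, proteins quantified by TMT10plex mass spectrometry in mild NP-40 versus SDS extracts, three biological replicates.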
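Throughout, for thermal stability score vs G1/S (z-score of summed log2 fold changes over temperatures): synchronized HeLa Kyoto cells, proteins quantified by TMT10plex mass spectrometry, three biological replicates, mitosis taken 0.5 h after nocodazole release, G1/S directly after double thymidine block.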

Sequence of CDK16 (chain, as listed by the source): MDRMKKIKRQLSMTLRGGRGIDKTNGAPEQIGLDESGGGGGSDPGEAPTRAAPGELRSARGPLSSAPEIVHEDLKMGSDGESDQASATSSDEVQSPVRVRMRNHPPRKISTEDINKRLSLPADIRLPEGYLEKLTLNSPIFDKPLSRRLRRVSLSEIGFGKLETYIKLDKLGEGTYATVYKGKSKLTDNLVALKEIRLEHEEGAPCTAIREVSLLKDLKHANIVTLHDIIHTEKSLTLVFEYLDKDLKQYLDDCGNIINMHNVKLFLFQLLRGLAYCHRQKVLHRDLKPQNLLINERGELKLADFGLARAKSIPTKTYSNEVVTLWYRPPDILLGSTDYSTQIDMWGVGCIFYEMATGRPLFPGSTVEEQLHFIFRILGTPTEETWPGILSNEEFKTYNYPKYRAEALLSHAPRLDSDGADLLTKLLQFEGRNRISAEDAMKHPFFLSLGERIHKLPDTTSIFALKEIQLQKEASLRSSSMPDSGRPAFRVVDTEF

Take “MIIYRDLISHDEMFSDIYKIREIADGLCLEVEGKMVSRTEGNIDDSLIGGNASAEGPEGEGTESTVITGVDIVMNHHLQETSFTKEAYKKYIKDYMKSIKGKLEEQRPERVKPFMTGAAEQIKHILANFKNYQFFIGENMNPDGMVALLDYREDGVTPYMIFFKDGLEMEKC [TPT1]”: the “solubility in G1/S (log2)” value in the data set on HeLa Kyoto [1] was determined as 0.476. Also, the thermal stability score worked out at 0.357 in the data set on HeLa Kyoto [2] (setting [5]) and 0.0736 with HeLa Kyoto [2] (cell cycle stage: mitosis). Also, the “solubility change mitosis (log2)” value in the data set on HeLa Kyoto [3] was -0.0912. Besides, the melting temperature in the data set with HeLa Kyoto [4] (cell cycle stage: G1/S) came to 53.5 °C; in the data set on HeLa Kyoto [4] (cell cycle stage: mitosis), 52.9 °C.

Take CDK16: the “solubility in G1/S (log2)” value in the data set on HeLa Kyoto [1] is 0.548. Also, the figures for the thermal stability score in the data set with HeLa Kyoto [2] (setting [5]) and in the data set on HeLa Kyoto [2] (cell cycle stage: mitosis) were -0.616 and 0.901, respectively. Moreover, the “solubility change mitosis (log2)” value in the data set on HeLa Kyoto [3] was -0.105. In addition, the figures for the melting temperature in the data set on HeLa Kyoto [4] (cell cycle stage: G1/S) and in the data set on HeLa Kyoto [4] (cell cycle stage: mitosis) were 50.7 °C and 53.1 °C, respectively.

“MNPNCARCGKIVYPTEKVNCLDKFWHKACFHCETCKMTLNMKNYKGYEKKPYCNAHYPKQSFTMVADTPENLRLKQQSELQSQVRYKEEFEKNKGKGFSVVADTPELQRIKKTQDQISNIKYHEEFEKSRMGPSGGEGMEPERRDSQDGSSYRRPLEQQQPHHIPTSAPVYQQPQQQPVAQSYGGYKEPAAPVSIQRSAPGGGGKRYRAVYDYSAADEDEVSFQDGDTIVNVQQIDDGWMYGTVERTGDTGMLPANYVEAI [LASP1]”: in the data set with HeLa Kyoto [1], the “solubility in G1/S (log2)” value is 0.0591. Also, the thermal stability score in the data set with HeLa Kyoto [2] (setting [5]) was -2.02; with HeLa Kyoto [2] (cell cycle stage: mitosis), -2.68. Also, the “solubility change mitosis (log2)” value in the data set on HeLa Kyoto [3] was determined as 0.0867. For the same substance, the melting temperature with HeLa Kyoto [4] (cell cycle stage: G1/S) was 58.7 °C; with HeLa Kyoto [4] (cell cycle stage: mitosis), 60.5 °C.

Consider “MSWAARPPFLPQRHAAGQCGPVGVRKEMHCGVASRWRRRRPWLDPAAAAAAAVAGGEQQTPEPEPGEAGRDGMGDSGRDSRSPDSSSPNPLPQGVPPPSPPGPPLPPSTAPSLGGSGAPPPPPMPPPPLGSPFPVISSSMGSPGLPPPAPPGFSGPVSSPQINSTVSLPGGGSGPPEDVKPPVLGVRGLHCPPPPGGPGAGKRLCAICGDRSSGKHYGVYSCEGCKGFFKRTIRKDLTYSCRDNKDCTVDKRQRNRCQYCRYQKCLATGMKREAVQEERQRGKDKDGDGEGAGGAPEEMPVDRILEAELAVEQKSDQGVEGPGGTGGSGSSPNDPVTNICQAADKQLFTLVEWAKRIPHFSSLPLDDQVILLRAGWNELLIASFSHRSIDVRDGILLATGLHVHRNSAHSAGVGAIFDRVLTELVSKMRDMRMDKTELGCLRAIILFNPDAKGLSNPSEVEVLREKVYASLETYCKQKYPEQQGRFAKLLLRLPALRSIGLKCLEHLFFFKLIGDTPIDTFLMEMLEAPHQLA [RXRB]”, for which the “solubility in G1/S (log2)” value with HeLa Kyoto [1] is 0.264. Also, the thermal stability score turned out to be 0.348 in the data set with HeLa Kyoto [2] (setting [5]) and 0.163 in the data set on HeLa Kyoto [2] (cell cycle stage: mitosis). In the data set with HeLa Kyoto [3], the “solubility change mitosis (log2)” value is -0.14. Moreover, the melting temperature stood at 47.6 °C in the data set with HeLa Kyoto [4] (cell cycle stage: G1/S) and 49.1 °C with HeLa Kyoto [4] (cell cycle stage: mitosis).

Regarding LTN1, the “solubility in G1/S (log2)” value in the data set on HeLa Kyoto [1] was -0.347. For the same substance, the thermal stability score was determined as 0.696 with HeLa Kyoto [2] (setting [5]) and 1.04 in the data set with HeLa Kyoto [2] (cell cycle stage: mitosis). Also, the “solubility change mitosis (log2)” value in the data set on HeLa Kyoto [3] is -0.0806. Besides, the results for the melting temperature with HeLa Kyoto [4] (cell cycle stage: G1/S) and in the data set on HeLa Kyoto [4] (cell cycle stage: mitosis) were 50.1 °C and 48.8 °C, respectively.

With “MQMVPSLPPASECAGEEKRVGTRTVFVGNHPVSETEAYIAQRFCDNRIVSSKYTLWNFLPKNLFEQFRRIANFYFLIIFLVQVTVDTPTSPVTSGLPLFFVITVTAIKQGYEDCLRHRADNEVNKSTVYIIENAKRVRKESEKIKVGDVVEVQADETFPCDLILLSSCTTDGTCYVTTASLDGESNCKTHYAVRDTIALCTAESIDTLRAAIECEQPQPDLYKFVGRINIYSNSLEAVARSLGPENLLLKGATLKNTEKIYGVAVYTGMETKMALNYQGKSQKRSAVEKSINAFLIVYLFILLTKAAVCTTLKYVWQSTPYNDEPWYNQKTQKERETLKVLKMFTDFLSFMVLFNFIIPVSMYVTVEMQKFLGSFFISWDKDFYDEEINEGALVNTSDLNEELGQVDYVFTDKTGTLTENSMEFIECCIDGHKYKGVTQEVDGLSQTDGTLTYFDKVDKNREELFLRALCLCHTVEIKTNDAVDGATESAELTYISSSPDEIALVKGAKRYGFTFLGNRNGYMRVENQRKEIEEYELLHTLNFDAVRRRMSVIVKTQEGDILLFCKGADSAVFPRVQNHEIELTKVHVERNAMDGYRTLCVAFKEIAPDDYERINRQLIEAKMALQDREEKMEKVFDDIETNMNLIGATAVEDKLQDQAAETIEALHAAGLKVWVLTGDKMETAKSTCYACRLFQTNTELLELTTKTIEESERKEDRLHELLIEYRKKLLHEFPKSTRSFKKAWTEHQEYGLIIDGSTLSLILNSSQDSSSNNYKSIFLQICMKCTAVLCCRMAPLQKAQIVRMVKNLKGSPITLSIGDGANDVSMILESHVGIGIKGKEGRQAARNSDYSVPKFKHLKKLLLAHGHLYYVRIAHLVQYFFYKNLCFILPQFLYQFFCGFSQQPLYDAAYLTMYNICFTSLPILAYSLLEQHINIDTLTSDPRLYMKISGNAMLQLGPFLYWTFLAAFEGTVFFFGTYFLFQTASLEENGKVYGNWTFGTIVFTVLVFTVTLKLALDTRFWTWINHFVIWGSLAFYVFFSFFWGGIIWPFLKQQRMYFVFAQMLSSVSTWLAIILLIFISLFPEILLIVLKNVRRRSARRNLSCRRASDSLSARPSVRPLLLRTFSDESNVL [ATP11C]”, the “solubility in G1/S (log2)” value with HeLa Kyoto [1] is -0.156. Also, the thermal stability score is -0.694 in the data set on HeLa Kyoto [2] (setting [5]) and -1.66 in the data set on HeLa Kyoto [2] (cell cycle stage: mitosis). In addition, the “solubility change mitosis (log2)” value in the data set on HeLa Kyoto [3] is -0.202. The melting temperature in the data set on HeLa Kyoto [4] (cell cycle stage: G1/S) was 55.2 °C; with HeLa Kyoto [4] (cell cycle stage: mitosis) it was 55 °C.

“MDALEDYVWPRATSELILLPVTGLECVGDRLLAGEGPDVLVYSLDFGGHLRMIKRVQNLLGHYLIHGFRVRPEPNGDLDLEAMVAVFGSKGLRVVKISWGQGHFWELWRSGLWNMSDWIWDARWLEGNIALALGHNSVVLYDPVVGCILQEVPCTDRCTLSSACLIGDAWKELTIVAGAVSNQLLVWYPATALADNKPVAPDRRISGHVGIIFSMSYLESKGLLATASEDRSVRIWKVGDLRVPGGRVQNIGHCFGHSARVWQVKLLENYLISAGEDCVCLVWSHEGEILQAFRGHQGRGIRAIAAHERQAWVITGGDDSGIRLWHLVGRGYRGLGVSALCFKSRSRPGTLKAVTLAGSWRLLAVTDTGALYLYDVEVKCWEQLLEDKHFQSYCLLEAAPGPEGFGLCAMANGEGRVKVVPINTPTAAVDQTLFPGKVHSLSWALRGYEELLLLASGPGGVVACLEISAAPSGKAIFVKERCRYLLPPSKQRWHTCSAFLPPGDFLVCGDRRGSVLLFPSRPGLLKDPGVGGKARAGAGAPVVGSGSSGGGNAFTGLGPVSTLPSLHGKQGVTSVTCHGGYVYTTGRDGAYYQLFVRDGQLQPVLRQKSCRGMNWLAGLRIVPDGSMVILGFHANEFVVWNPRSHEKLHIVNCGGGHRSWAFSDTEAAMAFAYLKDGDVMLYRALGGCTRPHVILREGLHGREITCVKRVGTITLGPEYGVPSFMQPDDLEPGSEGPDLTDIVITCSEDTTVCVLALPTTTGSAHALTAVCNHISSVRAVAVWGIGTPGGPQDPQPGLTAHVVSAGGRAEMHCFSIMVTPDPSTPSRLACHVMHLSSHRLDEYWDRQRNRHRMVKVDPETRYMSLAVCELDQPGLGPLVAAACSDGAVRLFLLQDSGRILQLLAETFHHKRCVLKVHSFTHEAPNQRRRLLLCSAATDGSLAFWDLTTMLDHDSTVLEPPVDPGLPYRLGTPSLTLQAHSCGINSLHTLPTREGHHLVASGSEDGSLHVFVLAVEMLQLEEAVGEAGLVPQLRVLEEYSVPCAHAAHVTGLKILSPSIMVSASIDQRLTFWRLGHGEPTFMNSTVFHVPDVADMDCWPVSPEFGHRCALGGQGLEVYNWYD [WDR6]”: the “solubility in G1/S (log2)” value in the data set on HeLa Kyoto [1] is -0.611. Moreover, the thermal stability score in the data set on HeLa Kyoto [2] (setting [5]) was -0.588; with HeLa Kyoto [2] (cell cycle stage: mitosis) it was 0.0649. In the data set with HeLa Kyoto [3], the “solubility change mitosis (log2)” value is -0.023. Also, the figures for the melting temperature in the data set with HeLa Kyoto [4] (cell cycle stage: G1/S) and with HeLa Kyoto [4] (cell cycle stage: mitosis) were 51.5 °C and 51.6 °C, respectively.
